Test results from a protein production outcome set (Wang et al. 2014).

Assay: label from the status in PepcDB records

In the case of “MEIRMSKSSSKPVLVTCGLPYANGKAHIGHLRTYVPADIYARSLKKEGREVTFVCGSDTHGTPIVVNAEELGITPTELVEIYHKHFDETFKQLGIYFDAFGTTDDPENHNRTHDIVSRLIEKGYVYPKIIEIAYCPACNRFLPDRYVEGACPHCGETARGDECDQGCGKHLEPGELQNPVCTICGGPAEYRQQEHFFFKLSEFSNYLMDYLSKDLGGTTNAINYARGWVKQGLTDWCITRNLEWGVKFPGHEDLVVYVWVDAPIGYIAFTEEWAAQAGDSWEKFWKGDGEIVHFIGGDITYHHCIFWPAMLKGADYSVPTAVVASGMVKIEDRKFSKTRGYVVWVGEDYLDHGFHPDLLRYYLASYTSHTKELNFSWRVLQEKINAELVAVLGNFLYRTMLFAFKNYGEVPEGEVEPEIRKEIEKALVEVKAAMEEYEFKKAVDSAMALASFGNTYFQSHEPWKLIKEDRDACGQVVYNCLHLAKALSLIFEPVIPQTMEKAWKGLGHESDIHAALYEETLVPLKAGTKLAKPEILFTKLEDDRIGEMEEIANQRVAAANAKRNGVKGGEKEPSKSEGMGPSEASKASEKTVDVATAEEKVQVETLPVIDYEDFAKLDIRVGKVLLVEPVKKSKKLLRIEVDIGEEKPRQLVAGMASYYTPEELVGKSVIVLANLKPAKLCGVESNGMMLAADDGGAIVAALMPDKEIKSGSRIR”, the protein production was “failed”.

In the case of “MSTNYIDCQLLNKMERQPSFSSFDCGDPFLDSFAPKKLANADANNDSRVYVAVDGDIGVGYATMKVFMLSNDEYKILSGKYPRQVPVVMLDQIAVDKAYQGKGIGKRLMRKVLEATVLVNELAAAKGLALWAHPRAKDFYESLGFEAIPDATKQVQDVELTLMFIHVETILDALK”, the protein production was “failed”.

For “MKTYSVIAVASLLATNLLTFPSSSLAEIENKTRNSIEAVSHMQSNEKSELQKQLEAAKEREMKLEKREEILKQQEELFIKIDDLKQKKEELLEQAGEHNVQIEEVYQELNELKKQQEELEEKNPLQVKSNDQEKKTNELKSQEELKEKDGVEVKENNGQEEKVHEEFEEQKKKEELKKQQDELRKQQEELKKQQLELEQRIKQELERKQQEEQAKQELELKQKEEQAKRELELKQKEEQVKQELELKQKEEQVKQELELKQKEEQVKQELELKQKEEQEKQELELKQKEEQEKQELELKQKEEQKKQELELKQKEEQEKGERELKQAVSSIQAAPQSFPDVPGWAQESVYYLVHKKVISGMPDGTFSPSKVLSRAEAATIMAKILELEVSEGEKPTFTDSQDHWATPYIAAVEKAGVIKGEGNGKFNPNGQMTRAAMATMLVQAYQLEKKVHEELPTLFPDVKDHWGEKFINILVGMGISSGVDGGRWQPDRSITRAEAAQLVAVTDKSKDNELKMKKVSISKKFFTYNGPSLSSGISKEYGPREVTVYEERDGGWIRIHTDTGFKWVCLVEKKVNMNKNFLTYNEASLSSGISGEYAPQIVTVIEEREGNWIKVYTDLGYKWVCLIDKKVQIDRDFTTYDAPFRSANILDYYGPQAVTVVEERGTWLRIRTYAGYQWLDTKKEAKYLSKVFFAYDSPSFVSRVSGKYAPQTVEVYGEREGGWIQIQTSNGLKWVNEGNINRSQVILNVPSLYQFPELHNGCEVVSLQMLVEHQIGRSLNKVAFAFEMPFDQAKLKNYKTSSQIWGDPDVGFVGDVTGNTPGYSINPEPLKRLLDKYSRGTNLTGNDLSVLEDYVRNGKPVVTWVTVALNNPRAVTTWKTPGGKIIYARMNTHAVVLTGVDDNYVYYNDPFYGTKNVKVSKSRFASIYNQMGKKALSVD”, the protein production was “failed”.

For “MIAGFDAKLVASADTPLTIGNVPSGMEALLLADMARAGTSVAYVMSDGQRVADLEQILGFVAPDIPVLTLPAWDCLPYDRVSPSADTSARRLAALAGLINHAKKPHPAVVLVTVNAMLQKMAPRDVIESLGFSARPGNQIRMEDIAARLERNGFDRVATVREVGEFAVRGGILDVFVPGTEEPVRLDFFGDTLESIRTFDPASQRTIAQARSLDLNPMSEVTLTPDTIGRFRKNYLSLFGAATRDDALYQAVSEGRRYAGMEHWLPLFYEQLETAFDYLKGFRIVTDHTAKEAAKERSKLVLDYYEARRASGETKGSTQGAPYKPVSPGQIYLDGKSFEAALASVNAVRLTPFNEHDSEGRPVATLDAHVGPRWARPPTEGDSEERVNVFDLAVKHIAERRAKGWKVLITGWSEGSLDRLLQVLNEHGLEKIKPVTSLKEVKKLGKGEAACAVLSLEAGFETGTLAVIGEQDILGDRMVRRSKRRKRGADFIAEVAGLDEGSLVVHAEHGIGRFVGLQTIEAAGAPRACLELHYADDAKLFLPVENIDLLSRYGSDAAEATLDKLGGGAWQMRKAKLKKRLLDMADELIRIAAARLVRHAPALIAPDGLYDEFAARFPYDETEDQLNAIEAVRDDLGAGRPMDRLICGDVGFGKTEVALRAAFLAAMNGVQVAVVVPTTLLARQHFRTFSERFRGLPIRVQQASRLVGSKELALTKKEVAEGKTDIVVGTHALLGAGISFANLGLLIIDEEQHFGVKHKERLKELKSDVHVLTLSATPIPRTLQLAMTGVRELSLITTPPVDRMAVRTFISPFDPLVIRETLMREHYRGGQSFYVCPRLADLADIHAFLQSDVPELKVAVAHGQMAAGELEDIMNAFYDGKYDVLLSTTIVESGLDVPTANTLIVHRADMFGLAQLYQLRGRVGRSKVRAFALFTLPVNKVLTTMAERRLKVLQSLDTLGAGFQLASHDLDIRGAGNLLGEEQSGHIKEVGFELYQQMLEEAVAEVKGDEEVRDSGWSPQISVGTSVMIPEDYVPDLHLRMGLYRRLGELADISEIDGFGAEMIDRFGPLPKEVQHLLKIVYIKSLCRTANVEKVDAGPKGVVVQFRNKEFPNPAALVGYIGKQGSMAKIRPDHSLFLNRDLPTPEKRLTGAAMVMTQLAELARS”, the protein production was “failed”.

For “MNCIPQYYKNRVCLNVLAGSIKNAKEVYDACDGHVLIGVLSKNYSTVEAAIEDMKKYSKEIDNAISVGLGAGDPNQSNMVSQISKELQPQHINQVFTGVATSRALLGQNYSIINGLVSPTGKPGFVKISTGPLSSKEKDGIVPIETAIAMMKDMGGSSIKFFPMGGLKTKDEYIEVAKACAKHNFYLEPTGGIDLDNFKEIVQIALDAGVEKVIPHVYTSIIDKETGETKVEDIGVLYKIMKELLG”, the protein production was “not failed”.

For “MKEVLFISEMERGRAEIESRVSNIKTTQDFGYREKIKEKKDASTAYAACISELLLEEKVKKIAVAYDFPIFYSNYLTEAGFTIVPVKSPFRKMRSVKGPEEIEAIKYAQMAGEKAMEAAITLIADAEEKDGVLYFEGQVLTGAKVNSVIDHTLLDFGCEAEETIVSCGEDTSNPHGTTEGPLRANAPIILDIFPRSKKKRYFADMTRTVLRGEASEKLKEMYETVLVAQQKALEMVKPGIHSSEIHRAVCDLFEARGYHTYRSGSKAGFTHSTGHGVGLDIHELPSVGESGVLLETGNVITIEPGLYYPGIGGIRLEDMVLVTKTGYENFTGLEKKFVLKSFYNLEHHHHHH”, the protein production was “failed”.

In the case of “AGQVVHTETTEVVLTADPVTGFGIQLQGSVFATETLSSPPLISYIEADSPAERCGVLQIGDRVMAINGIPTEDSTFEEANQLLRDSSITSKVTLEIEFDVAESVIPSSG”, the protein production was “not failed”.

In the case of “MRASQSAIFRRIDPFAILSFTIPLAVYLLTLAPSVTFFDSGEFITAIHSLGTAHSPGYPLFVNYGKPFTWLPFGNIAFRVNIATAVSASAACFAVYFLTHYLLKREELVPDLRFSDTFARLCGLAAALAFAFSARLWLQSNHDKPYPLVAFMTAMVFYLLVTWRERYDEGEMRPSHIYLGAFICGLATGAHQTIVLMLPAYAWLILSKNWRLAARVKELALTVAFGLMGFAIQLHMPIRAMRNPLLNWGDPRTLDLFLWNFLRKGYPVEPPDRNLALAWQQLSAFNLPREFTWVGLVLLLVGIGAFFTRRRDEIIAYLLAIVCSLLVIVGYFNTPGDLIFLTEEFFTPIYLLSAVFIGLGLFTLLRLALRNNPVEKLRTVPIKLMAGLLLLVLPSAICAMNYYENDQHENYVAFDYATNTLRSLSPGAVLFTWGDSGAFPLWYLQGVERMREDLDLLHTPHLVFDWYLDAFPHLFGRSVLRTMPERRQSSEVALKLAVAEQIVSRPVFIDFSTRYSLPFAEYGLKQRGICYQLINDGGSVLRPPDLAVWRLYASRGYTSQMGFRDLDTGKAILIYASCRMEAGEILLRMGYRQQGAEELSAAAAIAPELRAQVEQVLAAYGAR”, the protein production was “failed”.

In the case of “MPPLCRRQSGVPSGRRARHSGGMRLLVLGGTEFVGRSVVEAALGRGWEVTVLHRGRHAPPPGVRALHGDRTAPDGLTALTGAEDTWDAVVDTWSAAPRAVRDAARLLRQRAGRYVYVSSCSVYAWAPPAGYAEDAPLVEGASADAGQRDYARDKRGAELAVLDAFGADRSVLVRAGLILGPYENVGRLPWWLNRLARGGPVLAPGPRDLPLQYIDVRDLADWVLGAVERELSGPYNLVSPPGHTTMGGLLEACATVTGGTAELRWTSPETVLAAGIEPWVQLPVWTPPGSDLHDALHTADVSRALATGLVCRPARDTAAGTWTWLRDLGGTAPQRPDRPPVGLDPETEAKVLAADGPGGGVSDTTP”, the protein production was “failed”.

For “MASGNAGDTACLPAMVQAASLTAQQLLQQHWGYPAFRPGQAEIVEAIAQGRDCLIIWPTGGGKSLCFQVPALLRSGLTIVVTPLIALIENQVADLQARGIAAACLHSQMAPRDRKAVLQKLPQLKLLYLAPETLLSTPLWSRLTEPTIAIAGLILDEAHCLLQWGESFRPTYLRLGAIRPALVRLGKPSFPIAAFTATAYPQEVARLSQILQLQQPQRHQRDPYRSNLVLAVKTVWTPRQRQNQLLDFLAKHQGQSGLIYLRSRRDCETWADRLRNRGYRCAAYHAGVSDRERRQIEQAWQTGSLPFAVCSSAFGMGIDKRDVRWVAHVHPPLLLSEYLQEVGRGGRDQQRAQGLTLVSEPSGWLDPSDRDRWQGFQQATQQQWEAAQRQAQQLPASGDLRSLASSNELDLALAYLQRLGQLQWLDPFRYRRRAIPTPRPAPRLDLQPLRQFLYSRDCRWRSLLQSFGSNHPTTWRCGHCDRCQTTG”, the protein production was “failed”.

For “MSVKLRLPQSAYPIFDRIEEMAWARHYQQIVREEKETELADDLEKGLPQHLFESLCIDHLQRHGANKQAISHAFDDDVEFQERMAEHIRYMAETIAHHQVDIDLEDLEHHHHHH”, the protein production was “not failed”.

For “MSAKSPTPQPPYEIPSFRKRRLITTGLLTITTLWFIYFYVDLVSATTLLTLPVIIAAPLIMVYIWYHEFTYYARVRKNNKLYKALYGHLQNHQHPENTDTPPM”, the protein production was “failed”.

In the case of “CRLLWDYVYQLLSDSRYENFIRWEDKESKIFRIVDPNGLARLWGNHKNRTNMTYEKMSRALRHYYKLNIIRKEPGQRLLFRFMKTPDEIMSGRTDRLEHLESQEL”, the protein production was “not failed”.

In the case of “MAEEQQPSTDDETAAKSATTKQASPKAETDQSATQPVEDQPTATPEEVAALEKKAADFEDKYLRAEAEVQNMQARFQKEQATLIKYDGQQLAKDVLPVIDNLERALAVEASDDVAAQIKKGVQMTYDHLEDALKRNHVTEIAALGQTFDPTLHQAVQSVPAEDGQTAETVVNVLQKGYQLKDRVLRPAMVVVAQ”, the protein production was “failed”.

For “MKKNILFIQGGGEGGYEADKHLVASLQQALGKDYAIQYPELSSDETAPDFGWPQQIGTLLSKTDDEIILAAHSLGASMLLKYLSEYVVKNKKIAGVFLLAAPFWEGKEEWKTGLKLKEHFSDTLPKDVPFFFYQCRDDEEVPFSHLEQYRKKLSRAAFREISSGGHTFHTDLSVLATDISAL”, the protein production was “failed”.

For “MKVLFLTANEFEDVELIYPYHRLKEEGHEVYIASFERGTITGKHGYSVKVDLTFDKVNPEEFDALVLPGGRAPERVRLNEKAVSIARKMFSEGKPVASICHGPQILISAGVLRGRKGTSYPGIKDDMINAGVEWVDAEVVVDGNWVSSRVPADLYAWMREFVKLLK”, the protein production was “not failed”.

In the case of “RPQTTDNWQNTEIEGIDIMLAVDVSTSMLAEDLKPNRLEAAKQVASEFINGRPNDNIGLTIFAGESFTQCPLTVDHGVLLNLFNSIKGDIAQRGLIEDGTAIGMGIANAVTRLKDSKAKSKVIILLTDGSNNRGDISPLTAAEIAKQFGIRIYTIGVGTNGTAPYPMQTYAGTQYVNVPVEIDEKTLTEIAGTTNGNYFRATSNSKLKEVYQEIDKLEKTKL”, the protein production was “failed”.
